{"source": "patent US20240352438A1", "about": "“MEANS AND METHODS FOR DETOXIFYING OCHRATOXIN A” (DSM Austria GmbH, priority 2021, published 2024)", "molecules": {"B1": {"name": "18 (protein)", "chain": "MPPMRTRTRILTASLALLAANAWAADAMPSTPHTVVLRAARMFDGASGKLVEHPQLTIVGNKIVRVAQDDKAAVPAGADVIDLGDATLLPGFIDAHVHLSGQSSDNWYGDFFDNMMRFPAEQALYGAWYARITLEAGFTSVRDVGSTDWIALGLRNAIDAGKVPGPRMLVSNYAIGSTGGHADQDPIPPQKLAPAGPLQGVCNGPDECRAAVRYQIKYGANVIKFMPSGGVLSLSDPVDAPELTQEEMNAVVGEAHAWGRKVAAHAHGDKAAKMAVAAGVDSIEHGSFLEDDTLRMMKAKGVYLVPTISAVMHVEEKIATFPPVIAEKGRAAAAHVRQTFRHAVQIGVPIALGTDAGVGAHGTNAREFRYMVDNGMAPAQALLAGTSNAARLLGTIDRVGTLEAGKLADVVAVPGNPVADITVTERPVFVMKDGVVVRRGAVR", "modifications": "polypeptide 4"}, "B2": {"name": "39 (protein)", "chain": "MYSLAIRNGIVFDGEKFIGKTNIYVDGDKIVKITNERLDAKEEVNAEGYFVMPGLIDAHLHLTGIRGGSLLMGYLLDDPRTRLLRAANWARELLMAGFTTVRDCGEPNSIILRNAINEGIIPGPRIIAAGSPITQTFGHAELSHSLPLEWSIQLGFGEICDGVDECIKAARKVLRSGADFIKIMATGGVLSERDRPEWPQLTPEEMSAIVREAEKVGTYVAAHAHGDKGARIAVEAGVRTIEHGSLITEETVKLMAEKGVSLTPTLSAQELIYKYGKQMGIDPWGLEKIGQVREGVINSIKLARKYGVMILAGTDLGFKTGLDIDMGKNWVEVKLLVELGGLSSEEALRAATGNASKMLRLNTGIIREGYLADIVLINGNPLENINDIARVSTVIKGGKVTVENGKLI", "modifications": "exemplary polypeptide"}, "B3": {"name": "44 (protein)", "chain": "B2 chain with A268I, I272V", "modifications": "exemplary polypeptide"}, "B4": {"name": "41 (protein)", "chain": "B2 chain with A268I, Y275V", "modifications": "exemplary polypeptide"}, "B5": {"name": "42 (protein)", "chain": "B2 chain with A268I, F318V", "modifications": "exemplary polypeptide"}, "B6": {"name": "43 (protein)", "chain": "B2 chain with P132A, A268I", "modifications": "exemplary polypeptide"}, "B7": {"name": "45 (protein)", "chain": "B2 chain with A268I, Y275F", "modifications": "exemplary polypeptide"}, "B8": {"name": "40 (protein)", "chain": "B2 chain with A268I, Q269I", "modifications": "exemplary polypeptide"}}, "note": "Substitutions are numbered along the chain they refer to."}
{"assay": "Thermostability assay: residual OTA detoxification activity after 10 min incubation at 45-99° C. (T50)", "assay_type": "physicochemical", "settings": "0.1 mg/mL protein in 20 mM Tris-HCl pH 7.5, residual OTA detoxification activity relative to 4° C. reference aliquot", "in_short": "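T50 marks the temperature range at which half the starting OTA-detoxifying activity is lost, versus an unheated 4 °C reference. Samples were 0.1 mg/mL purified protein in 20 mM Tris-HCl pH 7.5, exposed for 10 min to 45, 55, 65, 75, 80, 85, 90, 95 or 99 °C.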"}
{"molecule": "B1", "T50 (temperature at which 50% of the initial activity was maintained)": "81-83 °C"}
{"molecule": "B2", "T50 (temperature at which 50% of the initial activity was maintained)": ">99 °C"}
{"molecule": "B3", "T50 (temperature at which 50% of the initial activity was maintained)": ">99 °C"}
{"molecule": "B4", "T50 (temperature at which 50% of the initial activity was maintained)": "99 °C"}
{"molecule": "B5", "T50 (temperature at which 50% of the initial activity was maintained)": ">99 °C"}
{"molecule": "B6", "T50 (temperature at which 50% of the initial activity was maintained)": ">99 °C"}
{"molecule": "B7", "T50 (temperature at which 50% of the initial activity was maintained)": ">99 °C"}
{"molecule": "B8", "T50 (temperature at which 50% of the initial activity was maintained)": ">99 °C"}
{"assay": "OTA detoxification activity assay (specific activity, fluorescence reduction ex/em 390/450 nm)", "assay_type": "biochemical", "settings": "pH 6.0; 37° C.; 200 ng/mL OTA; 100 mM sodium phosphate buffer", "in_short": "(§1)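 Recombinant enzyme preparation with 200 ng/mL OTA in 100 mM sodium phosphate, at pH 6.0 and pH 7.5, 37° C. Degradation followed as the fall in fluorescence at ex/em 390/450 nm. Specific activity taken from the initial linear slope; one unit degrades 1 μmol OTA per min at a starting OTA of […].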", "units": {"Specific OTA detoxification activities in U/g at pH 6.0": "U/g"}}
{"molecule": "B1", "Specific OTA detoxification activities in U/g at pH 6.0": 39.30}
{"assay": "OTA detoxification activity assay (specific activity, fluorescence reduction ex/em 390/450 nm)", "assay_type": "biochemical", "settings": "pH 6.0; SEQ ID NO: 2 = 100%", "in_short": "as §1", "units": {"Specific OTA detoxification activities in % compared to the enzyme of SEQ ID NO: 2, pH 6.0": "%"}}
{"molecule": "B2", "Specific OTA detoxification activities in % compared to the enzyme of SEQ ID NO: 2, pH 6.0": 8.00}
{"molecule": "B3", "Specific OTA detoxification activities in % compared to the enzyme of SEQ ID NO: 2, pH 6.0": 84.00}
{"molecule": "B4", "Specific OTA detoxification activities in % compared to the enzyme of SEQ ID NO: 2, pH 6.0": 272.00}
{"molecule": "B5", "Specific OTA detoxification activities in % compared to the enzyme of SEQ ID NO: 2, pH 6.0": 131.00}
{"molecule": "B6", "Specific OTA detoxification activities in % compared to the enzyme of SEQ ID NO: 2, pH 6.0": 46.00}
{"molecule": "B7", "Specific OTA detoxification activities in % compared to the enzyme of SEQ ID NO: 2, pH 6.0": 168.00}
{"molecule": "B8", "Specific OTA detoxification activities in % compared to the enzyme of SEQ ID NO: 2, pH 6.0": 15.00}
{"assay": "OTA detoxification activity assay (specific activity, fluorescence reduction ex/em 390/450 nm)", "assay_type": "biochemical", "settings": "pH 7.5; 37° C.; 200 ng/mL OTA; 100 mM sodium phosphate buffer", "in_short": "as §1", "units": {"Specific OTA detoxification activities in U/g at pH 7.5": "U/g"}}
{"molecule": "B1", "Specific OTA detoxification activities in U/g at pH 7.5": 147.14}
{"assay": "OTA detoxification activity assay (specific activity, fluorescence reduction ex/em 390/450 nm)", "assay_type": "biochemical", "settings": "pH 7.5; SEQ ID NO: 2 = 100%", "in_short": "as §1", "units": {"Specific OTA detoxification activities in % compared to the enzyme of SEQ ID NO: 2, pH 7.5": "%"}}
{"molecule": "B2", "Specific OTA detoxification activities in % compared to the enzyme of SEQ ID NO: 2, pH 7.5": 15.00}
{"molecule": "B3", "Specific OTA detoxification activities in % compared to the enzyme of SEQ ID NO: 2, pH 7.5": 84.00}
{"molecule": "B4", "Specific OTA detoxification activities in % compared to the enzyme of SEQ ID NO: 2, pH 7.5": 1551.00}
{"molecule": "B5", "Specific OTA detoxification activities in % compared to the enzyme of SEQ ID NO: 2, pH 7.5": 595.00}
{"molecule": "B6", "Specific OTA detoxification activities in % compared to the enzyme of SEQ ID NO: 2, pH 7.5": 19.00}
{"molecule": "B7", "Specific OTA detoxification activities in % compared to the enzyme of SEQ ID NO: 2, pH 7.5": 138.00}
{"molecule": "B8", "Specific OTA detoxification activities in % compared to the enzyme of SEQ ID NO: 2, pH 7.5": 61.00}
